The values that follow come from PMC9198586.

The assay concerns the target p53 (human, wild type) (human (endogenous in HCT 116, MCF7, U2OS)), P04637. In words: co-IP; HCT 116 colon cancer cells, untreated or treated with RITA; co-immunoprecipitation of p53/MDM2 or p53/MDM4 as described previously (Issaeva et al., 2004). The following applies: remark: other sources report otherwise.

p53 (human, wild type) (human (endogenous in HCT 116, MCF7, U2OS)), P04637, sequence (P04637 whole entry): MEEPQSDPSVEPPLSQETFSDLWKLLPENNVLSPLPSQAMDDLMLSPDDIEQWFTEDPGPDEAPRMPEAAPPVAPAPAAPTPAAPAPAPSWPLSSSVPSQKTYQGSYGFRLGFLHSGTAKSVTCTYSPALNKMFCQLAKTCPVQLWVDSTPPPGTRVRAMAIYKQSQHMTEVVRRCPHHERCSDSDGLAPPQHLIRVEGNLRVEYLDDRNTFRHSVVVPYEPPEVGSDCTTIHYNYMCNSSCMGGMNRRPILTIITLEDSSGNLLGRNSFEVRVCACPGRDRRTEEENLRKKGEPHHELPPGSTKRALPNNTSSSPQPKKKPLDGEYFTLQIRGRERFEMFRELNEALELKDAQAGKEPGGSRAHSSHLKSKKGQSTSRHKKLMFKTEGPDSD

B1: MDM4 (MDMX), human, O15151 1-490 (natural protein)
chain: MTSFSTSAQCSTSDSACRISPGQINQVRPKLPLLKILHAAGAQGEMFTVKEVMHYLGQYIMVKQLYDQQEQHMVYCGGDLLGELLGRQSFSVKDPSPLYDMLRKNLVTLATATTDAAQTLALAQDHSMDIPSQDQLKQSAEESSTSRKRTTEDDIPTLPTSEHKCIHSREDEDLIENLAQDETSRLDLGFEEWDVAGLPWWFLGNLRSNYTPRSNGSTDLQTNQDVGTAIVSDTTDDLWFLNESVSEQLGVGIKVEAADTEQTSEEVGKVSDKKVIEVGKNDDLEDSKSLSDDTDVEVTSEDEWQCTECKKFNSPSKRYCFRCWALRKDWYSDCSKLTHSLSTSDITAIPEKENEGNDVPDCRRTISAPVVRPKDAYIKKENSKLFDPCNSVEFLDLAHSSESQETISSMGEQLDNLSEQRTDTENMEDCQNLLKPCSLCEKRPRDGNIIHGRTGHLVTCFHCARRLKKAGASCPICKKEIQLVIKVFIA
Regarding B1, the percent reduction of the amount of MDMX bound to p53 by RITA was 43%.
